# Measured values reported in the nanobody polyreactivity screen of Harvey et al. (2022).
# Assay: yeast display, Sf9 membrane polyspecificity reagent, FACS + sequencing; frameworks hold sequencing errors
# Procedure, shortened: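 Nanobodies came from a synthetic yeast display library in Saccharomyces cerevisiae BJ5465, induced with galactose for 36–48 hours and stained for 1 hour at 4 °C with 10% biotinylated, detergent-solubilized Sf9 membrane reagent. Cells were enriched on streptavidin microbeads and then FACS-sorted, with low and high (top ~1%) gates set on anti-HA fluorescence for expression and streptavidin fluorescence for reagent binding. Each polyreactivity label reflects the gate a clone came from. Genes were amplified by colony PCR, sequenced by MiSeq 2 × 250 and filtered by CDR length.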
row,Sequence,polyreactivity (PSR sort gate)
1,QVQLVESGGGLVQAGGSLRLSCAASGFTFDFYAMGWYRQAPGKERELVAAINWSGSSTYYADSVKGRFTISRDTAKNTVYLQMNSLKPEDTAVYYCAAQVYYTLFPDVYTMYYWGQGTQVTVSS,high polyreactivity
2,QVQLVESGGGLVQAGGSLRLSCAASGSTFRGYAMGWYRQAPGKERELVAAISRADITNYADSVKGRFTISRDNAKNTVYLQMNSLKPEDTAVYYCNAGVGARESDYWGQGTQVTVSS,low polyreactivity
3,QVQLVESGGGLVQARGSLRLSCAASGTIFSSYAMGWYRQAPGKERELVAAIRWTGGSTYYADSVKGRFTISRDNAMNTVFLEMNSLKPEDTAVYFCTAEYWIDWGYDYWGQGTQVTVSS,low polyreactivity
4,QVQLVESGGGLVQAGGSLRLSCAASGRTFPSYAMGWYRQAPGKERELVAAISRSGGSTYYADSVKGRFTISRDNAKNTVYLQMNSLKPEDTAVYYCAAVSRVHFSYIYDYWGQGTQVTVSS,high polyreactivity
5,QVQLVESGGGLDQAGGSLSLSCAASGYTYRLYAMGWYRQAPGKERELVAAITWRGGSTYYADSVKGRFTISRDNAKNTVYLQMNSLKPEDTAVYYCAAEFYIGRQGNYWGLGTQVTVSS,high polyreactivity
6,QVQLEESGGGLVQAGGSLRLSCAASGSIFSRNAMGLYRQAPGTERELVAVITRSGSTNYADSVKGRFTISRDNAKNTVYLQKKSLTPQDTAVYYCNADQDAYYLVSIATYDYWGQGTQVTVSS,low polyreactivity
7,QVQLVESGGGLVQAGGSLRLSCAASGSIFLYYAMGWYTQAPGKERELVASISSTGSTYYADSVKGRFTISRDNAKNTVYLLINSLKPEDTGVYYCAKRRWYYYPRYSLSTQMDYWGQGTQVTVSS,high polyreactivity
8,QVQLVESGGGLVQAGGSLRLSCAASGRTLGYYAKGWYRQAPGKERELVAAISRSGGSTYYADSVKGRFTISRDNAKNTVYLQMNSLKPEDTAVYYCAATYGPSRYRYDYWGQGTQVTVSS,high polyreactivity
9,QVQLVESGGGLVQAGGSLRLSCAASGSTFAWYAMGWYRQAPGKERELVAAISRTGRTYYADSVKGRFTISRDNAKNSVYLQMNSLKPEDTAVYYCAAKSIYDGFPYYLFDYWGQGTQVTVSS,high polyreactivity
10,QVQLVESGGGLVQAGGSLRLSCAASGLTFLFYAMGWYRHATGKERELVASIRWSDGRTYYADSVKGRFTISRDNAKNTVYLQMNSLKPEDTAVYYCAVVPAYVYLNREYYWGQGTQVTVSS,high polyreactivity
11,QVQLVESGGGLVQAGGSLRLSCAASGRTFAPNTMGWYRQAPGKERELVATISSGGSTNYADSVKGRFTISRDNAKNTVYLQMNSLKPEDTAVYYCAARYRIVYRSHWGFTSYDYWGQGTQVTVSS,low polyreactivity
12,QVQLVESGGGLVQAGVSLRISCAASGGTLNGYAMGWYRQSPGKERELVAVITSGGSTNYADSVKGLFTISRDNAKNTVYLQMNSLKPEDTAVYYCAVRPYELHRLADQPGGDDYWGQGTQVTVSS,low polyreactivity
13,QVQLVESGGGLVQAGGSLRLSCAASGRIFGPNDMGWYRQAPGKDRELVAAISWSGSSTRYADSVKGRFTISRDNAKNTVYLQMNSLKPEDTAGYYCAADRYWHSVVRDEDYWGQGTQVTVSS,low polyreactivity
14,QVQHVESGGGLVQAGGSLRLSCAASGSIFTVNAMGWYRQAPGKERELVAAIDGSSGSTNYADSVKGRFTISRDNAKNTVYLQMNSLKPEDTAVYYCAADWSYEYGYWGQGTQVTVSS,low polyreactivity
15,QVQLVESGGGLVQAGGSLRLSCAASGFIFATYAMGWYRQAPGKERELVAAISRRGVRTNYADSVKGRFTISRDNAKNTVYLQMNSLKQEDTAVYYCNAQSHYGKIPMYYWGQGTQVTVSS,high polyreactivity
16,QVQLVESGGGLVQAGGSLRLSCAASGRTFSANTMGWYRQAPGKERELVAAISKSGGSTYYADSVKGRFTISRDNAKNTVYLQMNSLKPEDTAVYYCAAARNVYRGRVYWGRYDYWGQGTQVTVSS,high polyreactivity
17,QVQLVESGGGLVQAGGSLRLSCAASGRIFYYYAMGWYRQAPGKERELVAAITRRGGSTYYADSVKGRFTISRDNAKNTVYLQMNSLKPEDTAVYYCAKPDRTGWLDGDYWGQGTQVTVSS,low polyreactivity
18,QVQLVESGGGLVQAGGSLRLSCAASGRTFGYYAMGWYRQAPGKERELVAAISWSGGRTYYADSVKGRFTISRDNAKNTVYLQMNSLKPEDTAVYYCAAQTAGFWYDYWGQGTQVTVSS,high polyreactivity
19,QVQLVESGVGLVQAGGSLSLSCAASGRTFAYNAMGWYRQAAGKERELVAAINGDGGSTYYADSVKGRFTISRDNAMNTDYLQMISLKPEDTAVYYCAADLKYDGAYDYWGQGTQVTVSS,high polyreactivity
20,QVQLVESGGGLFQAGGSLRLSCSASGNTFVPYDMGWYRQAPGKERELVAGITSGGSTYYADSVKGRFTISRDNAKNTVYLQMNSLKPEDTAVYYCAADYYLWVYWYDYWGEGTQVTVSS,high polyreactivity
21,QVQLVESGGGLVQAGGSLRLSCASSGSILTSYAMGWYRQAPRKERELVASIDWSAGTTYYADSVKGRFTISRDNAKNTVYLQMNSLKPEDTAVYYCGKLEFLSGYPYRPEYGSWGQGTQVTVSS,low polyreactivity
22,QVQLVESGGGLVQAGGSLRLSCAASGFIFGYYAMGWYRQAPGKERELVAAITSGGSTYYADSVKGRFTISRDNAKNTVYLQMNSLKPEDTAVYYCAAGWWYYLHMDYWGQGTQVTVSS,high polyreactivity
